Laboratory results: US20250361322A1
One block for each substance: values may come before it.

Key:
hTF_K149N (human) = hTF_K149N (human) (UniProt P13726); assay: live cell staining, flow cytometry, transfected HEK293
[1] = biological target: h1-107_r (human/rat chimera); assay: as above
[2] = biological target: r141-194_h (rat/human chimera) (UniProt P42533); assay: as above
[3] = biological target: h159-219_r (human/rat chimera); assay: live cell staining (HEK293, flow cytometry)
[4] = biological target: h167-174_r (human/rat chimera) (UniProt P13726); assay: live cell staining (HEK293, flow cytometry)
[5] = biological target: h159-174_r (human/rat chimera) (UniProt P13726); assay: live cell staining (HEK293, flow cytometry)
[6] = biological target: h1-107_r (human/rat chimera); assay: live cell staining (HEK293, flow cytometry)
[7] = biological target: r141-194_h (rat/human chimera) (UniProt P42533); assay: live cell staining (HEK293, flow cytometry)
[8] = biological target: h108-219_r (human/rat chimera); assay: live cell staining (HEK293, flow cytometry)
[9] = biological target: h159-189_r (human/rat chimera) (UniProt P13726); assay: live cell staining (HEK293, flow cytometry)
[10] = biological target: human Tissue Factor (TF) (human) (UniProt P13726); assay: cell-based or functional assay
[11] = biological target: full-length mouse TF with a C-terminal FLAG tag on Flp-In-CHO cells (mouse) (UniProt P20352); assay: flow cytometry on CHO cells expressing mouse TF, MFI at 250 nM antibody

Sequence of h1-107_r (human/rat chimera) (chain, as listed by the source mutant limits assumed): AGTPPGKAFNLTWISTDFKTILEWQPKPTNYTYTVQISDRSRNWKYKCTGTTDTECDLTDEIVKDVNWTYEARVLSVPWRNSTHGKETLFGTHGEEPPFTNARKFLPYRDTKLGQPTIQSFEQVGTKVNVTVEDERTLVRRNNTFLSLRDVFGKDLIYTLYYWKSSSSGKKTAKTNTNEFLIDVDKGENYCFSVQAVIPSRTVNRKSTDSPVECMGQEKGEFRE
Sequence of h108-219_r (human/rat chimera) (chain, as listed by the source mutant limits assumed): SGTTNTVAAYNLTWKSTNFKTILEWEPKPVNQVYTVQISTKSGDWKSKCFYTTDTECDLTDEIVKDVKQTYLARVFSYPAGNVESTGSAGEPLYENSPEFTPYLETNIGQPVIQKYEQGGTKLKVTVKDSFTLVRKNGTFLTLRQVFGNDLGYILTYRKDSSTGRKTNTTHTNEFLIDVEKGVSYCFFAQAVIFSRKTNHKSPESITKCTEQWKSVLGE

- percent antibody binding to TF construct relative to hTF (hTF_K149N (human)): 145%
- percent antibody binding to TF construct relative to hTF [1]: 41%
- percent antibody binding to TF construct relative to hTF [2]: 32%
- Percentage antibody binding to TF construct relative to hTF [3]: < 50%
- Percentage antibody binding to TF construct relative to hTF [4]: < 50%
- Percentage antibody binding to TF construct relative to hTF [5]: < 50%
- Percentage antibody binding to TF construct relative to hTF [6]: < 50%
- Percentage antibody binding to TF construct relative to hTF [7]: < 50%
- Percentage antibody binding to TF construct relative to hTF [8]: < 50%
- Percentage antibody binding to TF construct relative to hTF [9]: < 50%
Substance: 5G9 (humanized TF8-5G9, CNTO 860) (antibody)

- % GM-CSF at 2.56 nM [10]: 88%
- % GM-CSF at 6.4 nM [10]: 86%
- % GM-CSF at 100 nM [10]: 105%
- % IL8 at 2.56 nM [10]: 90%
- % IL8 at 6.4 nM [10]: 88%
- % IL8 at 16 nM [10]: 84%
Substance: Control

- MFI at 250 nM [11]: 7400
Substance: IgG1 isotype control (antibody)
